The assay has as its target T1, recombinant Aub with N-terminal His-, Myc- and 3xFLAG-tags (Drosophila, UniProt O76922 1-866).
T1 construct: Aubergine (Aub), Drosophila; aub cDNA cloned into pFastBac/NT-TOPO; also called FLAG-tagged Aub; Aubergine; source: Sf9 (bacmid from pFastBac/NT-TOPO), purified (anti-c-Myc beads, c-Myc peptide elution); not shown: Myc, N-terminal, kept; 3xFLAG, N-terminal, kept
T1 sequence (looked up): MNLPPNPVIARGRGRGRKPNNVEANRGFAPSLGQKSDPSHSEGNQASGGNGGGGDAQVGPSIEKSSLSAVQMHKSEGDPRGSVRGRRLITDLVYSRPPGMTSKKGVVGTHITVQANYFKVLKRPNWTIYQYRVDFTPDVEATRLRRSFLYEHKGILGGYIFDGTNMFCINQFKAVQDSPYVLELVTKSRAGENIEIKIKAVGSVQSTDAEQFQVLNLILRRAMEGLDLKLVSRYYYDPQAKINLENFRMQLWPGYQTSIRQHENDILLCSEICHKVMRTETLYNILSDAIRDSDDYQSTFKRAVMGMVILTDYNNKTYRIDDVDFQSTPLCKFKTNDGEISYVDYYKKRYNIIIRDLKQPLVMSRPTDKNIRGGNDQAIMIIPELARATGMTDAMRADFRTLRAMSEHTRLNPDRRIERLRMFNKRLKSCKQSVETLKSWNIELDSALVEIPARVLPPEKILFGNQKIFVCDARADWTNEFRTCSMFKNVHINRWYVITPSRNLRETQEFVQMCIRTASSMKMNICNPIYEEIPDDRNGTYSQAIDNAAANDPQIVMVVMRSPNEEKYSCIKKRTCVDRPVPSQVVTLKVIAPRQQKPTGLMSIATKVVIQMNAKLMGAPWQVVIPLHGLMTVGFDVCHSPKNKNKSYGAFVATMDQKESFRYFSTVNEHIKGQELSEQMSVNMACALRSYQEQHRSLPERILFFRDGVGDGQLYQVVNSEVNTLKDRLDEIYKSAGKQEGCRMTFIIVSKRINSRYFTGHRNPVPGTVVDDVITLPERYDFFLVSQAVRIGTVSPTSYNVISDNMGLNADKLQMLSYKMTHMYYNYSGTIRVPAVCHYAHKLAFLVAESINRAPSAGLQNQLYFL
In words: pull-down; purified FLAG-tagged Aub or FLAG-GFP control bound to anti-FLAG beads; purified Myc-eIF4A added in PBS, 0.05% IGEPAL CA-630, 4 °C, 60 min; western blot with anti-c-Myc. The conditions noted are these: both partners purified.

B1: Myc-tagged eIF4A (enzyme, Drosophila, UniProt Q02748 1-403, looked up)
chain: MDDRNEIPQDGPASMEPEGVIESTWHEVYDNFDDMNLREELLRGIYGYGFEKPSAIQQRAIIPCVRGRDVIAQAQSGTGKTATFSIAILQQIDTSIRECQALILAPTRELATQIQRVVMALGEYMKVHSHACIGGTNVREDARILESGCHVVVGTPGRVYDMINRKVLRTQYIKLFVLDEADEMLSRGFKDQIQDVFKMLPPDVQVILLSATMPPDVLEVSRCFMRDPVSILVKKEELTLEGIKQFYVNVKQENWKLGTLCDLYDTLSITQSVIFCNTRRKVDQLTQEMSIHNFTVSAMHGDMEQRDREVIMKQFRSGSSRVLITTDLLARGIDVQQVSLVINYDLPSNRENYIHRIGRGGRFGRKGVAINFITDDDRRILKDIEQFYHTTIEEMPANIADLI
notes: eukaryotic translation initiation factor 4A (eIF4A), ATP-dependent RNA helicase, Drosophila; also called Myc-eIF4A; eukaryotic translation initiation factor 4A; source: S2 cells, purified (anti-c-Myc beads, c-Myc peptide elution)
Regarding B1, the binding result is listed as “binds”.
